Data published in paper PMC9696579 (Nature structural & molecular biology, 2022).

Target: mouse PKA-Cα (Mus musculus, UniProt P05132)
Experiment: Surface plasmon resonance
Details: SPR; mouse PKA-Cα; ATP and MgCl2 present

B1: SMO pCT WRR mutant: SMO pCT harboring the WRR mutation, GST-tagged for SPR (protein)
chain: KRIKKSKMIAKAFSKRRELLQNPGQELSFSMHTVSHDGPVAGLAFDLNEPSADVSSAAAQHVTKMVAAAGAILPQDVSVTPVATPVPPEEQAN
modifications: left off: GST, end not stated, kept
- binding to PKA-Cα: no PKA-C binding was observed
